For six proteins, kcat and kcat/Km results are on record in article PMC11968058.

Substrate in the data set: O=C(O)/C=C/c1ccc(O)c(O)c1
The data set can be described thus: purified protein. The following applies: co-substrate SAM.

[1] abbreviates: optimal conditions (30°C, pH 8.0).
The mark [2] stands for this setting: optimal conditions (35°C, pH 8.0).

B1: AtCOMT (Arabidopsis thaliana) (protein)
chain: MGSTAETQLTPVQVTDDEAALFAMQLASASVLPMALKSALELDLLEIMAKNGSPMSPTEIASKLPTKNPEAPVMLDRILRLLTSYSVLTCSNRKLSGDGVERIYGLGPVCKYLTKNEDGVSIAALCLMNQDKVLMESWYHLKDAILDGGIPFNKAYGMSAFEYHGTDPRFNKVFNNGMSNHSTITMKKILETYKGFEGLTSLVDVGGGIGATLKMIVSKYPNLKGINFDLPHVIEDAPSHPGIEHVGGDMFVSVPKGDAIFMKWICHDWSDEHCVKFLKNCYESLPEDGKVILAECILPETPDSSLSTKQVVHVDCIMLAHNPGGKERTEKEFEALAKASGFKGIKVVCDAFGVNLIELLKKL
A word on the kcat: it is the number of substrate molecules converted per active site and unit of time at saturation. In general, kcat/Km refers to the turnover number divided by the Michaelis constant. Regarding B1, under setting [1], the catalytic constant (kcat) was found to be 0.327 s⁻¹ and the kcat/Km was determined as 482 M⁻¹ s⁻¹.

B2: AtCOMT (Arabidopsis thaliana; F174L) (protein)
chain: MGSTAETQLTPVQVTDDEAALFAMQLASASVLPMALKSALELDLLEIMAKNGSPMSPTEIASKLPTKNPEAPVMLDRILRLLTSYSVLTCSNRKLSGDGVERIYGLGPVCKYLTKNEDGVSIAALCLMNQDKVLMESWYHLKDAILDGGIPFNKAYGMSAFEYHGTDPRFNKVLNNGMSNHSTITMKKILETYKGFEGLTSLVDVGGGIGATLKMIVSKYPNLKGINFDLPHVIEDAPSHPGIEHVGGDMFVSVPKGDAIFMKWICHDWSDEHCVKFLKNCYESLPEDGKVILAECILPETPDSSLSTKQVVHVDCIMLAHNPGGKERTEKEFEALAKASGFKGIKVVCDAFGVNLIELLKKL
For B2, for the setting “optimal conditions”, the kcat is 0.369 s⁻¹ and the kcat/Km was 1120 M⁻¹ s⁻¹.

B3: AtCOMT (Arabidopsis thaliana; H313A) (protein)
chain: MGSTAETQLTPVQVTDDEAALFAMQLASASVLPMALKSALELDLLEIMAKNGSPMSPTEIASKLPTKNPEAPVMLDRILRLLTSYSVLTCSNRKLSGDGVERIYGLGPVCKYLTKNEDGVSIAALCLMNQDKVLMESWYHLKDAILDGGIPFNKAYGMSAFEYHGTDPRFNKVFNNGMSNHSTITMKKILETYKGFEGLTSLVDVGGGIGATLKMIVSKYPNLKGINFDLPHVIEDAPSHPGIEHVGGDMFVSVPKGDAIFMKWICHDWSDEHCVKFLKNCYESLPEDGKVILAECILPETPDSSLSTKQVVAVDCIMLAHNPGGKERTEKEFEALAKASGFKGIKVVCDAFGVNLIELLKKL
On to B3, for which, under “optimal conditions”, the turnover number (kcat) was determined as 0.4 s⁻¹ and the kcat/Km turned out to be 606 M⁻¹ s⁻¹.

B4: AtCOMT (Arabidopsis thaliana; H313A/N129V) (protein)
chain: MGSTAETQLTPVQVTDDEAALFAMQLASASVLPMALKSALELDLLEIMAKNGSPMSPTEIASKLPTKNPEAPVMLDRILRLLTSYSVLTCSNRKLSGDGVERIYGLGPVCKYLTKNEDGVSIAALCLMVQDKVLMESWYHLKDAILDGGIPFNKAYGMSAFEYHGTDPRFNKVFNNGMSNHSTITMKKILETYKGFEGLTSLVDVGGGIGATLKMIVSKYPNLKGINFDLPHVIEDAPSHPGIEHVGGDMFVSVPKGDAIFMKWICHDWSDEHCVKFLKNCYESLPEDGKVILAECILPETPDSSLSTKQVVAVDCIMLAHNPGGKERTEKEFEALAKASGFKGIKVVCDAFGVNLIELLKKL
As to B4, where the note is “optimal conditions”, the kcat came to 0.498 s⁻¹ and the kcat/Km stood at 1390 M⁻¹ s⁻¹.

B5: AtCOMT (Arabidopsis thaliana; F174L/H313A/N129V) (protein)
chain: MGSTAETQLTPVQVTDDEAALFAMQLASASVLPMALKSALELDLLEIMAKNGSPMSPTEIASKLPTKNPEAPVMLDRILRLLTSYSVLTCSNRKLSGDGVERIYGLGPVCKYLTKNEDGVSIAALCLMVQDKVLMESWYHLKDAILDGGIPFNKAYGMSAFEYHGTDPRFNKVLNNGMSNHSTITMKKILETYKGFEGLTSLVDVGGGIGATLKMIVSKYPNLKGINFDLPHVIEDAPSHPGIEHVGGDMFVSVPKGDAIFMKWICHDWSDEHCVKFLKNCYESLPEDGKVILAECILPETPDSSLSTKQVVAVDCIMLAHNPGGKERTEKEFEALAKASGFKGIKVVCDAFGVNLIELLKKL
Turning to B5, under setting [2], the catalytic constant (kcat) was 0.475 s⁻¹ and the kcat/Km turned out to be 2020 M⁻¹ s⁻¹.

B6: AtCOMT (Arabidopsis thaliana; N129V) (protein)
chain: MGSTAETQLTPVQVTDDEAALFAMQLASASVLPMALKSALELDLLEIMAKNGSPMSPTEIASKLPTKNPEAPVMLDRILRLLTSYSVLTCSNRKLSGDGVERIYGLGPVCKYLTKNEDGVSIAALCLMVQDKVLMESWYHLKDAILDGGIPFNKAYGMSAFEYHGTDPRFNKVFNNGMSNHSTITMKKILETYKGFEGLTSLVDVGGGIGATLKMIVSKYPNLKGINFDLPHVIEDAPSHPGIEHVGGDMFVSVPKGDAIFMKWICHDWSDEHCVKFLKNCYESLPEDGKVILAECILPETPDSSLSTKQVVHVDCIMLAHNPGGKERTEKEFEALAKASGFKGIKVVCDAFGVNLIELLKKL
On to B6, for which, under “optimal conditions”, the kcat is 0.458 s⁻¹ and the kcat/Km worked out at 828 M⁻¹ s⁻¹.
